Source: article PMC2824034, “The indispensable N-terminal half of eIF3j/HCR1 co-operates with its structurally conserved binding partner eIF3b/PRT1-RRM and eIF1A in stringent AUG selection” (Journal of molecular biology, 2010)
Numbering of substitutions follows the chain as printed. Numbers in names are those of the source.

B1: heIF3j_(35-69) peptide (peptide, UniProt O75822 35-69, looked up)
peptide: GGDRWEGEDEDEDVKDNWDDDDDEKKEEAEVKPEV
notes: human eIF3j, residues 35-69, with the N-terminal acidic motif (NTA) around Trp52; 13C/15N-labeled in some NMR samples; also called heIF3j peptide; short heIF3j peptide; source: E. coli BL21(DE3), purified (nickel-chelating column, TEV cleavage, nickel column, HiTrap DEAE); not shown: His6, N-terminal, cleaved; lipoyl domain, N-terminal, cleaved
B2: heIF3b-RRM_(170-274) (domain or fragment, human, UniProt P55884 170-274, looked up)
chain: GDVLKDRPQEADGIDSVIVVDNVPQVGPDRLEKLKNVIHKIFSKFGKITNDFYPEEDGKTKGYIFLEYASPAHAVDAVKNADGYKLDKQHTFRVNLFTDFDKYMT
notes: 13C/15N-labeled in some NMR samples; The limits are printed for the NMR complex; the ITC names only heIF3b-RRM; also called human eIF3b-RRM; heIF3b-RRM domain; source: E. coli BL21(DE3), purified (nickel-chelating column, TEV cleavage, second nickel column)
B3: His6-heIF3b-RRM-F261A (domain or fragment, human, UniProt P55884 170-274, looked up)
chain: B2 chain with F92A
notes: human eIF3b, RNA recognition motif domain, F261A; source: E. coli BL21(DE3), purified (nickel-chelating column)
B4: His6-heIF3b-RRM-I210A (domain or fragment, human, UniProt P55884 170-274, looked up)
chain: B2 chain with I41A
notes: human eIF3b, RNA recognition motif domain, I210A; source: E. coli BL21(DE3), purified (nickel-chelating column)
B5: His6-heIF3b-RRM-Y253A (domain or fragment, human, UniProt P55884 170-274, looked up)
chain: B2 chain with Y84A
notes: human eIF3b, RNA recognition motif domain, Y253A; source: E. coli BL21(DE3), purified (nickel-chelating column)

Tests used:
Conditions in all cases: both partners purified
[1] = biological target: B2; test: NMR solution structure; 13C/15N-labeled heIF3b-RRM with heIF3j peptide or labeled peptide with heIF3b-RRM; 20 mM deuterated TRIS pH 7.5, 100 mM NaCl, 25°C; 0.7 mM RRM, 0.7-1.0 mM peptide; 32 intermolecular NOEs
[2] = biological target: T1, heIF3j-W52A (human, UniProt O75822 1-258, W52A); test: ITC; VP-ITC; cell: 50 μM full-length heIF3j wt or mutant; syringe: 1 mM heIF3b-RRM; 20 mM Hepes pH 7.5, 200 mM NaCl, 25°C
T1 construct: human eIF3j, full length, W52A; source: E. coli BL21(DE3), purified (nickel-chelating column, TEV cleavage, second nickel column)

[3] = biological target: T2, heIF3j-N51A-W52A (human, UniProt O75822 1-258, N51A | W52A); test: as above
T2 construct: human eIF3j, full length, N51A and W52A; source: E. coli BL21(DE3), purified (nickel-chelating column, TEV cleavage, second nickel column)

[4] = biological target: T3, heIF3j-N51A (human, UniProt O75822 1-258, N51A); test: as above
T3 construct: human eIF3j, full length, N51A; source: E. coli BL21(DE3), purified (nickel-chelating column, TEV cleavage, second nickel column)

[5] = biological target: T4, heIF3j (full-length, untagged, wt) (human, UniProt O75822 1-258); test: as above
T4 construct: human eIF3j, full length; also called human eIF3j; wt heIF3j; source: E. coli BL21(DE3), purified (nickel-chelating column, TEV cleavage, second nickel column)

[6] = biological target: T5, heIF3j-D50K-D53K-D57K (human, UniProt O75822 1-258, D50K | D53K | D57K); test: as above
T5 construct: human eIF3j, full length, D50K, D53K and D57K; source: E. coli BL21(DE3), purified (nickel-chelating column, TEV cleavage, second nickel column)

[7] = biological target: T4, heIF3j (full-length, untagged, wt); test: pull-down; His6-heIF3b-RRM (wt or mutant) incubated with untagged full-length heIF3j (30 μM each) 15 min at room temperature, His-select spin columns; 50 mM sodium phosphate pH 8, 100 mM NaCl; washes with 5 mM imidazole, elution with 250 mM imidazole; SDS-PAGE, InstantBlue

T4 sequence (O75822 whole entry): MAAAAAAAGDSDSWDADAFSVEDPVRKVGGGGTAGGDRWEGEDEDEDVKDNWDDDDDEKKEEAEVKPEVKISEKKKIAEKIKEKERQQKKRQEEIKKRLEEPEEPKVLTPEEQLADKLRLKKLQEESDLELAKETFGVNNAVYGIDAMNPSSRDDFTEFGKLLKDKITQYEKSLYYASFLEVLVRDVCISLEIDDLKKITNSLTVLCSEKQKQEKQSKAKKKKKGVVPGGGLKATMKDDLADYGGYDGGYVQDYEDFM
T3 sequence (O75822 whole entry N51A): as the sequence (O75822 whole entry) above, with N51A counted along it
T5 sequence (O75822 whole entry D50K/D53K/D57K): as the sequence (O75822 whole entry) above, with D50K, D53K, D57K counted along it
T2 sequence (O75822 whole entry N51A/W52A): as the sequence (O75822 whole entry) above, with N51A, W52A counted along it
T1 sequence (O75822 whole entry W52A): as the sequence (O75822 whole entry) above, with W52A counted along it

Binder: B1
- binding result [1]: binds

Binder: B2
- Kd [2]: > 10000 µM
- Kd [3]: > 10000 µM
- Kd [4]: 55 ± 0.3 µM
- Kd [5]: 20.3 µM
- Kd [6]: > 10000 µM

Binder: B3
- binding result [7]: binds

Binder: B4
- binding result [7]: binds

Binder: B5
- binding result [7]: binds
